Assay results: patent publication US9493537 (STC UNM, dated 2016)
One block for each binder: values may come before it. Positions of bridges follow the written chain, without caps; N, C: chain ends. Non-standard residues stand in square brackets, D forms with d. *: point of attachment. DOTA = O=C(O)CN1CCN(CC(=O)O)CCN(CC(=O)*)CCN(CC(=O)O)CC1; Nle = CCCC[C@H](N)C(=O)O

Columns and labels:
[1] = target: T1, melanocortin-1 (MC1) receptor on B16/F1 murine melanoma cells (mouse (B16/F1 murine melanoma cells), UniProt Q01727 1-315); assay: competitive binding on B16/F1 melanoma cells against 125I-Tyr2-NDP-MSH; row head 'MC1R binding affinity (nM)'
T1 construct: whole, on cells; Endogenous receptor of the B16/F1 cells, in culture and as flank tumours in C57 mice; also called MCI receptor; MSH receptor
Description: (§1) The medium was aspirated after the incubation. The cells were rinsed twice with 0.5 mL of ice-cold pH 7.4, 0.2% BSA/0.01 M phosphate buffered saline (PBS) and lysed in 0.5 mL of 1 N NaOH for 5 minutes. The activities associated with cells were measured in a Wallac 1480 automated gamma counter (PerkinElmer, Waltham, Mass.). The $IC50$ value of each peptide was calculated using Prism software (GraphPad Software, La Jolla, Calif.).

[2] = target: T1, melanocortin-1 (MC1) receptor on B16/F1 …; assay: competitive binding on B16/F1 melanoma cells against 125I-Tyr2-NDP-MSH
Description: as §1

T1 sequence (Q01727 whole entry): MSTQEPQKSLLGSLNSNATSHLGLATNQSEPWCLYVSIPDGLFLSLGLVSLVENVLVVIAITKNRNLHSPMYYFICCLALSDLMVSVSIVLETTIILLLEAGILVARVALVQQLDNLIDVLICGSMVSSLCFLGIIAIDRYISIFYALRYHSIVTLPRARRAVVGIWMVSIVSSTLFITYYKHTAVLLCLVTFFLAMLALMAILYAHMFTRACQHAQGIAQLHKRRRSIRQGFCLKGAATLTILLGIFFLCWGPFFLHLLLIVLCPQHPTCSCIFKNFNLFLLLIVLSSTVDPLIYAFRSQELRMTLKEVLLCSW

- IC50 [1]: 0.0021 µM
B1: DOTA-GGNle-CycMSHhex (peptide)
peptide: {DOTA}-GG[Nle]DH[dF]RWK-NH2
modifications: lactam 4-9
SMILES: CCCC[C@H](NC(=O)CNC(=O)CNC(=O)CN1CCN(CC(=O)O)CCN(CC(=O)O)CCN(CC(=O)O)CC1)C(=O)N[C@H]1CC(=O)NCCCC[C@@H](C(N)=O)NC(=O)[C@H](Cc2c[nH]c3ccccc23)NC(=O)[C@H](CCCNC(=N)N)NC(=O)[C@@H](Cc2ccccc2)NC(=O)[C@H](Cc2c[nH]cn2)NC1=O
notes: Synthetic; also called DOTA-GlyGlyNle-CycMSHhex

- IC50 [1]: 0.0115 µM
B2: DOTA-GENle-CycMSHhex (peptide)
peptide: {DOTA}-GE[Nle]DH[dF]RWK-NH2
modifications: lactam 4-9
SMILES: CCCC[C@H](NC(=O)[C@H](CCC(=O)O)NC(=O)CNC(=O)CN1CCN(CC(=O)O)CCN(CC(=O)O)CCN(CC(=O)O)CC1)C(=O)N[C@H]1CC(=O)NCCCC[C@@H](C(N)=O)NC(=O)[C@H](Cc2c[nH]c3ccccc23)NC(=O)[C@H](CCCNC(=N)N)NC(=O)[C@@H](Cc2ccccc2)NC(=O)[C@H](Cc2c[nH]cn2)NC1=O
notes: Synthetic; also called DOTA-GlyGluNle-CycMSHhex

- fold lower receptor binding affinity than DOTA-GGNle-CycMSHhex and DOTA-GENle-CycMSHhex [2]: ≥ 78 fold
- IC50 [1]: 0.873 µM
B3: DOTA-NleGE-CycMSHhex (peptide)
peptide: {DOTA}-[Nle]GEDH[dF]RWK-NH2
modifications: lactam 4-9
SMILES: CCCC[C@H](NC(=O)CN1CCN(CC(=O)O)CCN(CC(=O)O)CCN(CC(=O)O)CC1)C(=O)NCC(=O)N[C@@H](CCC(=O)O)C(=O)N[C@H]1CC(=O)NCCCC[C@@H](C(N)=O)NC(=O)[C@H](Cc2c[nH]c3ccccc23)NC(=O)[C@H](CCCNC(=N)N)NC(=O)[C@@H](Cc2ccccc2)NC(=O)[C@H](Cc2c[nH]cn2)NC1=O
notes: Synthetic; also called DOTA-NleGlyGlu-CycMSHhex
